Source: patent US20150147278A1 (KINKI UNIVERSITY, published 2015)

Target: T1, human LAT1/CD98 complex (human, UniProt Q01650 1-507; P08195 2-529)
T1 construct: whole, on cells; Disulfide-bonded heterodimer, endogenous on human tumor cell lines (HCT116, NCI-H1944, A549, HeLa); No purified or transfected antigen was used; also called LAT1/CD98 complex protein; LAT1/4F2hc
Experiment: flow cytometry on human tumor cell lines, antibody prepared at 40 µg/mL; reference LGtra01-01
Experimental: Using four types of human tumor cell lines, the anti-LAT1/CD98 monoclonal antibodies were measured for their binding ability by FCM analysis. The human tumor cell lines were each adjusted with PBS to 1×10⁵ cells/well and dispensed into tubes in 50 μL volumes. To this cell suspension, 50 μL of each monoclonal antibody prepared at 40 μg/mL was added and reacted at 4° C. for 45 minutes. After washing three times by addition of 0.1% BSA-PBS (100 μL) and the subsequent centrifugation at 500 g for 3 minutes at 4° C., the cell pellets were each supplemented with 50 μL of 200-fold diluted PE-labeled anti-rat IgG (Jackson Immuno Research) and reacted under light-shielded conditions at 4° C. for 45 minutes. After washing three times by addition of 0.1% BSA-PBS (100 μL) and the subsequent centrifugation at 500 g for 3 minutes at 4° C., the cells were suspended in PBS (500 μL) and then transferred to FCM tubes. PI (100 μL) was added immediately before measurement to remove dead cells, followed by measurement with a FACS calibur (Becton Dickinson).

T1 sequence (Q01650 whole entry, chain 1 of 2): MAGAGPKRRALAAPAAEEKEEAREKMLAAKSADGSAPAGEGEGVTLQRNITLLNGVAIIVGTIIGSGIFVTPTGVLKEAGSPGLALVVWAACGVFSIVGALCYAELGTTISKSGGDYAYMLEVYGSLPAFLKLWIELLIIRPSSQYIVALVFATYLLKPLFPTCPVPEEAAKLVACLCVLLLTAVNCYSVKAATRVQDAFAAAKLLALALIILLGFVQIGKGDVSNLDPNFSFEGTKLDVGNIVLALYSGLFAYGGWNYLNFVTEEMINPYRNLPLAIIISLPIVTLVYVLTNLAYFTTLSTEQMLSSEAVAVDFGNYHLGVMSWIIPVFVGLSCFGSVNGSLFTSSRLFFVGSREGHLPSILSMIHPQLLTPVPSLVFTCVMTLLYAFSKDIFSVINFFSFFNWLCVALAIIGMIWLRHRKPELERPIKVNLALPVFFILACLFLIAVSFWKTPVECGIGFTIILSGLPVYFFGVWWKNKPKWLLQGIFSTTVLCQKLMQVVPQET
T1 sequence (P08195 103-630, chain 2 of 2): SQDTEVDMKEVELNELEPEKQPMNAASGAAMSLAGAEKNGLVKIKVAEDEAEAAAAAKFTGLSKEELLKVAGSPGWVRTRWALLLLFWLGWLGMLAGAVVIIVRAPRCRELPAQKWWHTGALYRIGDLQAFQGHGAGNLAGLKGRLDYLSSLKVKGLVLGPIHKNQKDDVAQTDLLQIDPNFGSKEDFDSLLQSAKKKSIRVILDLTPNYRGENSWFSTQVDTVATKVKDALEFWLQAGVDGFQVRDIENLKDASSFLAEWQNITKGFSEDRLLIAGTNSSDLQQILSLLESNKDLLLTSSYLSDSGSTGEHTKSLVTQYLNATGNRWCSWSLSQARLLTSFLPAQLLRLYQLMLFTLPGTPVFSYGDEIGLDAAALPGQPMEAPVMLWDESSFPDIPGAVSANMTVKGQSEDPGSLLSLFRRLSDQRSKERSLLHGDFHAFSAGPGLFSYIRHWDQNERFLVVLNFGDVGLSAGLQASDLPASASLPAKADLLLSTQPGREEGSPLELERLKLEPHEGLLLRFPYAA

fold higher binding activity than LGtra01-01 monoclonal antibody	Binder
≥ 10 fold	LG9112 monoclonal antibody (antibody, V domains shown, Rat monoclonal antibody from a hybridoma, purified from ascites with Protein G and detected with anti-rat IgG; also called anti-LAT1/CD98 monoclonal antibody) VH: QMQLKESGPGLVQPSQTLSLTCAVSGFSLPTSSVSWIRQSPGKGLEWMGVIWSNGNTDYSSRFKSRLSISRDTAKSQVFLKMNSLQAEDTAMYFCARNFRNDPGVMDAWGQGASVTVSS VL: NIVMTQSPKSMSISVGDRVTMNCKASQNVGNNVAWYQQKPGLSPKLLISYASSRHTGVPDRFTGRGSGADFTLTINGVQAEDAAFYYCQRVYKSPYTFGGGTKLELKR
≥ 10 fold	LG9111 monoclonal antibody (antibody, V domains shown, Rat monoclonal antibody from a hybridoma, purified from ascites with Protein G and detected with anti-rat IgG; also called anti-LAT1/CD98 monoclonal antibody) VH: QLQLKESGPGLVQPSQTLSLTCTVSGFSLPTSSVSWIRQPPGKGLEWMGVIWSNGNTDYSSAIKSRLSISRDTSKSQVFLKMNSLQTEDTARYFCARNFRNDPGVMDAWGQGASVTVSS VL: NIVMTQSPRSMSLSGGDRVTMNCRASQNVGNNVAWYQQRPGQSPKLLISYASNRNTGVPGRFTGSGSGTDFTLTISSVQAEDAAFYYCQRIYKSPYTFGGGTKLELKR
≥ 10 fold	LG9113 monoclonal antibody (antibody, V domains shown, Rat monoclonal antibody from a hybridoma, purified from ascites with Protein G and detected with anti-rat IgG; also called anti-LAT1/CD98 monoclonal antibody) VH: QMQLKESGPGLVQPSQTLSLTCAVSGFSLPTSSVSWIRQSPGKGLEWMGVIWSNGNTDYSSRFKSRLSISRDTAKSQVFLKMNSLQTEDTAMYFCARNFRNDPGVMDAWGQGASVTVSS VL: NIVMTQSPKSMSISVGDRVTMNCKASQTVGNNVAWYQQKPGLSPKLLISYASSRHTGVPDRFTGRGSGADFTLTINGVQAEDAAFYYCQRVYKSPYTFGGGTKLELKR
≥ 10 fold	LG9114 monoclonal antibody (antibody, V domains shown, Rat monoclonal antibody from a hybridoma, purified from ascites with Protein G and detected with anti-rat IgG; also called anti-LAT1/CD98 monoclonal antibody) VH: QMQLKESGPGLVQPSQTLSLTCAVSGFSLPTSSVSWIRQSPGKGLEWMGVIWSNGNTDYSSRIKSRLSISRDTSKSQVFLKMNSLQTEDTAMYFCARNFRNNPGVMDAWGQGASVTVSS VL: NIVMTQSPKSMSISVGDRVTMNCKASQNVGNNVAWYQQKPGLSPKLLIYYASSRHTGVPDRFTGSGSGADFTLTINSVQAEDAAFYYCQRVYKSPYTFGGGTKLELKR
